Reference: US7037666B2, “Methods for identifying modulators of the interaction between lap (latency associated peptide) and intergrin αvβ3 and medical use thereof” (SmithKline Beecham Corporation, priority 2000, dated 2006)
Ends that are not written are not given here.

Assays:
Format in all cases: cell-based
[1] = target: T1, αvβ3 integrin (Homo sapiens, UniProt P05106+P06756); assay: Adhesion of K562-αvβ3 cells to GST-LAPβ1 (amino acids 242–252) coated wells; conditions: matrix titration or 0.5 μg coated, 2 mM MgCl2
T1 construct: expressed in transfected cells; host or cells: K562
T1 sequence (P06756 31-889 limits assumed): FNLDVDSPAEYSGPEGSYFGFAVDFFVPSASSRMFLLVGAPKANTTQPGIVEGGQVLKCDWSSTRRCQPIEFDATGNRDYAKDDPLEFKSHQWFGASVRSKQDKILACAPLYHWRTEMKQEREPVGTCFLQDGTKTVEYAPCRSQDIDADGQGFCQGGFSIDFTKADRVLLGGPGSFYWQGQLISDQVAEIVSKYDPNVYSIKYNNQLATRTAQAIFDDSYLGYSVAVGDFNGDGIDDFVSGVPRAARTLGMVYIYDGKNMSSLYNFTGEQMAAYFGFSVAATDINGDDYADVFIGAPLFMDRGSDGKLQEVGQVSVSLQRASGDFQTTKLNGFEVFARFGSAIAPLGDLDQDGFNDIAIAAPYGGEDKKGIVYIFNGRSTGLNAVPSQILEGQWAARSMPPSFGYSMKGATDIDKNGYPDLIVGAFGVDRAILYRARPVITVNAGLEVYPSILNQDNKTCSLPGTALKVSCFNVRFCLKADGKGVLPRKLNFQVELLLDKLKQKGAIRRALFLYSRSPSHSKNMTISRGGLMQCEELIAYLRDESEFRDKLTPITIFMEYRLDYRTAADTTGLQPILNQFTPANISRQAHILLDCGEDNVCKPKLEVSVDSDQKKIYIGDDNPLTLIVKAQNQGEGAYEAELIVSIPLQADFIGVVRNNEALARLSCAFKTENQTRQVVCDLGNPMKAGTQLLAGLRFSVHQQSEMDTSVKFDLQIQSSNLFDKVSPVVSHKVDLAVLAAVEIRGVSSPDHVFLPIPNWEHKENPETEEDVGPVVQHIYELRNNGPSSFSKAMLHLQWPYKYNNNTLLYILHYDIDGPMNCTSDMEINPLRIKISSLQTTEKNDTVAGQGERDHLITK
T1 sequence (P06756 891-1048 partner limits assumed): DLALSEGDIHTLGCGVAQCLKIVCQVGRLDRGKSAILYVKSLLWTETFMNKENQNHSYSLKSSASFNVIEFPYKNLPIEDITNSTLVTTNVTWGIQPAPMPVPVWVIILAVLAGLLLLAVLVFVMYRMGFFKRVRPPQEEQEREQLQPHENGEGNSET
T1 sequence (P05106 27-788): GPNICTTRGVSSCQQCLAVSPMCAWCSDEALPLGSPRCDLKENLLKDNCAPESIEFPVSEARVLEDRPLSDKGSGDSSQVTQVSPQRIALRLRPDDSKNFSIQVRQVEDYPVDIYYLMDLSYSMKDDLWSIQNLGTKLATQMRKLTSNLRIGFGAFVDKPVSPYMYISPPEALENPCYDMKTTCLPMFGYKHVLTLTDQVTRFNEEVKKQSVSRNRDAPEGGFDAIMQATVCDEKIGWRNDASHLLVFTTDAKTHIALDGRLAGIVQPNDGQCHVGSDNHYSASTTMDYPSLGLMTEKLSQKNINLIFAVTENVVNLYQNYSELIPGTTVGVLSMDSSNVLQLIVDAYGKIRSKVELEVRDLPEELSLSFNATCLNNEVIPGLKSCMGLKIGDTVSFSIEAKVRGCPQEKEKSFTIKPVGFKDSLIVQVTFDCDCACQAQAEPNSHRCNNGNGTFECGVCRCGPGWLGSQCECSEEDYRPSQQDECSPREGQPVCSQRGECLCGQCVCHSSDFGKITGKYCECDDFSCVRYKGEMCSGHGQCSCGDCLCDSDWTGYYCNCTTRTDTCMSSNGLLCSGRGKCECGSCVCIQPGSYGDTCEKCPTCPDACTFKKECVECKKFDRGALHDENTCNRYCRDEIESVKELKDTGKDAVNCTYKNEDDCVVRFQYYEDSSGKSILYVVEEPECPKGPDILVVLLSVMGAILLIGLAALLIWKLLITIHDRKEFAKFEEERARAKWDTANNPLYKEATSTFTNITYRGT
Procedure: All proteins were coated onto Maxisorp 96-well plates (Nunclon) overnight at 4° C. Each protein was diluted in PBS at the concentrations indicated, and a total volume of 100 ul added per well. Plates were washed twice in PBS then blocked with 3% BSA/PBS for 1 hour at 37° C., and finally washed twice in PBS. Cells were pelleted and washed once in HBSS (Sigma) then spread in HBSS, 25 mM HEPES pH 7.5 at the desired cell concentration (K562-WT, K562-αvβ6, HL60 at 6×10^6 cells/ml, K562-αvβ5, K562-αvβ3 at 4×10^6 cells/ml, 100 ul per well), in the presence of either 2 mM MgCl2 or 0.5 mM MnCl2 as indicated in the figure legends. […] For antibody inhibition cells were pre-incubated with the antibody (10 μg/ml) on ice for 5 minutes. Cells were then allowed to attach for 35 minutes at 37° C., washed twice with PBS, once in ethanol, and fixed in ethanol for 20 minutes at room temperature. For quantitation cells were visualised by staining with 0.1% crystal violet (Sigma) for 10 minutes then lysed in 0.5% Triton X-100 (Sigma) and read optically at 570 nm in a Wallac Victor plate reader.

[2] = target: T2, αvβ6 integrin (Homo sapiens, UniProt P06756+P18564); assay: Adhesion of K562-αvβ6 cells to LAP-β1 coated wells; conditions: coated at 10 μg/ml, 0.5 mM MnCl2
T2 construct: expressed in transfected cells; host or cells: K562
T2 sequence (P06756 31-889 limits assumed): as the sequence (P06756 31-889 limits assumed) above
T2 sequence (P06756 891-1048 partner limits assumed): as the sequence (P06756 891-1048 partner limits assumed) above
T2 sequence (P18564 22-788): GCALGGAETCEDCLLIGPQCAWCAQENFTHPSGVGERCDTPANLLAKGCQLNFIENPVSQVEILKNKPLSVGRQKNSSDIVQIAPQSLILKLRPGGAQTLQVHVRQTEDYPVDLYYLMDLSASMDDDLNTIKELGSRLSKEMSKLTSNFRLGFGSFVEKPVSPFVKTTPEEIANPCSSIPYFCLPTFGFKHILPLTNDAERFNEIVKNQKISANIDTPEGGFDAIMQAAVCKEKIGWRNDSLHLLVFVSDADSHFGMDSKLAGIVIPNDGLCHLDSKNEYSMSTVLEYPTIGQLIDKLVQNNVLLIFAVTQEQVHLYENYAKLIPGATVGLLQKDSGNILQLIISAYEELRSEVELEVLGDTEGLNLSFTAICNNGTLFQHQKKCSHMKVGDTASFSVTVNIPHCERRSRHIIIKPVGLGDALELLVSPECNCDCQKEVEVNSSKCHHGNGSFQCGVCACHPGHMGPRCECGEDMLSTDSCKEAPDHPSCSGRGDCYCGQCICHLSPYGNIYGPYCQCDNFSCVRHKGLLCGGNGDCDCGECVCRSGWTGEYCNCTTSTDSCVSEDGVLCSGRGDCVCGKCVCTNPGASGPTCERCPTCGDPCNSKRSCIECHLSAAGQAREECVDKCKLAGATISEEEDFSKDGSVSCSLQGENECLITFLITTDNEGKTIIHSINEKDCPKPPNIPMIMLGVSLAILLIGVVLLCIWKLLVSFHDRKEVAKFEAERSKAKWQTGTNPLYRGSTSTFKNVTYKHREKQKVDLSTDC
Procedure: (§1) Cells were allowed to attach to wells coated with LAP-β1 at 10 μg/ml. Cells were incubated for 35 minutes at 37° C. in HBSS supplemented with 25 mM HEPES pH 7.5, and either 0.5 mM MnCl2 (K562-WT, HL60, K562-αvβ6) or 2 mM MgCl2 (K562-αvβ3, K562-αvβ5). Each bar represents the mean±SD of duplicated points.
Cells were allowed to attach to wells coated with LAP-β1 at 10 μg/ml. Cells were incubated for 5 minutes on ice, then for 35 minutes at 37° C., in the presence of antibodies at 10 μg/ml as indicated. The buffer used was HBSS supplemented with 25 mM HEPES pH 7.5, and 2 mM MgCl2. Each bar represents the mean±SD of duplicated samples.
K562-WT (wild-type), K562-αvβ6, K562-αvβ5, K562-αvβ3, and HL60 cells were maintained in 1:1 RPMI 1640, Hepes modification (Gibco): Dulbecco's Minimum Essential Medium (DMEM), Hepes modification (Sigma) supplemented with L-glutamine (Gibco) and 10% fetal calf serum (FCS). In addition K562-αvβ3, K562-αvβ5, and K562-αvβ6 cells were supplemented with geneticin (G418, Gibco) at 1 mg/ml. […]
(§2) All proteins were coated onto Maxisorp 96-well plates (Nunclon) overnight at 4° C. […] For quantitation cells were visualised by staining with 0.1% crystal violet (Sigma) for 10 minutes then lysed in 0.5% Triton X-100 (Sigma) and read optically at 570 nm in a Wallac Victor plate reader.

[3] = target: T3, αvβ5 integrin (Homo sapiens, UniProt P06756+P18084); assay: Adhesion of K562-αvβ5 cells to LAP-β1 coated wells; conditions: coated at 10 μg/ml, 2 mM MgCl2
T3 construct: expressed in transfected cells; host or cells: K562
T3 sequence (P06756 31-889 limits assumed): as the sequence (P06756 31-889 limits assumed) above
T3 sequence (P06756 891-1048 partner limits assumed): as the sequence (P06756 891-1048 partner limits assumed) above
T3 sequence (P18084 24-799): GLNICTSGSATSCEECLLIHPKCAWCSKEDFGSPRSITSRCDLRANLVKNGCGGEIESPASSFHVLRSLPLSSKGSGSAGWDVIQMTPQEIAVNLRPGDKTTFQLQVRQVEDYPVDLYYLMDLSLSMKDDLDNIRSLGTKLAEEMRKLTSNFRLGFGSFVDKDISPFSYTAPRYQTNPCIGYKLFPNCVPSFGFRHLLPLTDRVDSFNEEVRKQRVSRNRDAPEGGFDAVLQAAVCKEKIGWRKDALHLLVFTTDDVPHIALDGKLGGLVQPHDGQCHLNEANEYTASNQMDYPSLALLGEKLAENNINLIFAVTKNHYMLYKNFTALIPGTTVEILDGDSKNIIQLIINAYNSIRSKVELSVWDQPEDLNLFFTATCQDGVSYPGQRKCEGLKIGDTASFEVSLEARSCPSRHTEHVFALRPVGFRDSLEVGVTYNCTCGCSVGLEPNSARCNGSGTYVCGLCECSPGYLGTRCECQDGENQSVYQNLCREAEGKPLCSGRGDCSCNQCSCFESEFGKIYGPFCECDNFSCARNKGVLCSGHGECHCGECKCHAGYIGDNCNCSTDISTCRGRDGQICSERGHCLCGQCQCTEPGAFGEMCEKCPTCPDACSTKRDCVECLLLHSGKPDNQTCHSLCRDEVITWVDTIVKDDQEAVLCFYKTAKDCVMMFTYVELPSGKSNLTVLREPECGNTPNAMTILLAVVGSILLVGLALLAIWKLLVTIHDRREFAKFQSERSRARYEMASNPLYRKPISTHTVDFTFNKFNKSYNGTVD
Procedure: as §1
(§3) K562-WT (wild-type), K562-αvβ6, K562-αvβ5, K562-αvβ3, and HL60 cells were maintained in 1:1 RPMI 1640, Hepes modification (Gibco): Dulbecco's Minimum Essential Medium (DMEM), Hepes modification (Sigma) supplemented with L-glutamine (Gibco) and 10% fetal calf serum (FCS). In addition K562-αvβ3, K562-αvβ5, and K562-αvβ6 cells were supplemented with geneticin (G418, Gibco) at 1 mg/ml. All transfected cells were generated by transfecting K562 cells with pCDNA-3 constructs containing individual integrin cDNAs, using lipofectamine plus (Gibco BRL).
as §2, with “C. Each protein was diluted in PBS at the concentrations indicated, and a total volume of 100 ul added per well. Plates were washed twice in PBS then blocked with 3% BSA/PBS for 1 hour at 37° C., and finally washed twice in PBS.” for “C.”

[4] = target: T1, αvβ3 integrin; assay: Adhesion of K562-αvβ3 cells to LAP-β1 coated wells; conditions: coated at 10 μg/ml, 2 mM MgCl2
Procedure: Cells were allowed to attach to wells coated with quantities of LAP-β1 indicated. […] The buffer used was HBSS supplemented with 25 mM HEPES pH 7.5, and 2 mM MgCl2. Each data point represents the mean±SD of duplicated samples.
The buffer used was HBSS supplemented with 25 mM HEPES pH 7.5, and 2 mM MgCl2. Adhesion to each ligand in the absence of compound was taken as a 100% binding value, with adhesion to BSA alone as a 0% binding value. The 100% binding values corresponded to the following absorbances at 570 nm: Fibrinogen=0.8, Vitronectin=0.9, LAP-β1=0.9. Each data point represents the mean±SD of duplicated samples. […]

[5] = tested on: K562-WT cells; assay: Adhesion of K562-WT cells to LAP-β1 coated wells; conditions: coated at 10 μg/ml, 0.5 mM MnCl2
Procedure: as §1, §3
as §2, with “C. Each protein was diluted in PBS at the concentrations indicated, and a total volume of 100 ul added per well. Plates were washed twice in PBS then blocked with 3% BSA/PBS for 1 hour at 37° C., and finally washed twice in PBS.” for “C.”

[6] = tested on: HL60 cells; assay: Adhesion of HL60 cells to LAP-β1 coated wells; conditions: coated at 10 μg/ml, 0.5 mM MnCl2
Procedure: as §1, §3
as §2, with “C. Each protein was diluted in PBS at the concentrations indicated, and a total volume of 100 ul added per well. Plates were washed twice in PBS then blocked with 3% BSA/PBS for 1 hour at 37° C., and finally washed twice in PBS.” for “C.”

Substance: GST-LAPβ1 (aa242–252): peptide fragment of LAPβ1 (amino acids 242–252, GRRGDLATIHG) containing the RGD motif, expressed as a GST fusion protein in E. coli ({GST}-GRRGDLATIHG; UniProt P01137 242-252, looked up, fragment)
- Ability to support adhesion of K562-αvβ3 cells [1]: supported adhesion of K562-αvβ3 cells similarly to intact LAPβ1

Substance: LAP-β1: latency associated peptide-β1 of TGF-β1, amino acids 30 to 278 of SEQ ID NO: 1, obtained from Sigma
- Adhesion of K562-αvβ6 cells to the coated protein [2]: adhered
- Adhesion of K562-αvβ5 cells to the coated protein [3]: bound slightly
- Adhesion of K562-αvβ3 cells to the coated protein [4]: interacted strongly
- Adhesion of K562-WT cells to the coated protein [5]: bound slightly
- Adhesion of HL60 cells to the coated protein [6]: failed to bind
